The subject of the series is Bacillus subtilis DB104 (SP-AmyQ fusion secretion). The series can be described thus: AmyQ secretion efficiency, weighted average sort bin (1 = best secretion, 10 = worst) (bin number (weighted average, 1-10)); higher = lower secretion efficiency. In a few lines: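 A B. subtilis DB104 library carrying amyE-integrated fusions of designed signal peptides to mature AmyQ was encapsulated at about 0.3 cells per ~65 nL alginate bead with fluorescein-starch and grown about 13 h at room temperature. Following nile red staining, occupied beads were flow-sorted as large particles into 10 equally populated bins by green/red fluorescence ratio, and the bin amplicons were Illumina-sequenced. The secretion score is the read-frequency-weighted average bin number normalised to beads per bin, leaving out low-abundance sequences.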

In the case of MKKVMLATALFLGLTPANAADL, the AmyQ secretion efficiency was 8.14.

Turning to MKKVMLATALFLGLTPDGANAADL, the AmyQ secretion efficiency worked out at 4.

In turn, MKKVMLATALFLGLTRRKANAADL showed an AmyQ secretion efficiency of 7.36.

With MKKVMLATALFLPAGANAADL, the AmyQ secretion efficiency amounted to 7.34.

In the case of MKKVRRATALFLGLTPAGANAADL, the AmyQ secretion efficiency worked out at 7.17.

In the case of MKKVSALTPSTTLAITAKAKEL, the AmyQ secretion efficiency is 6.89.

MKKVVLVLSIAGIGGFSVHAASS gave an AmyQ secretion efficiency of 6.91.

With MKKVVSALSISALALSVSGVASAHEI, the AmyQ secretion efficiency was determined as 2.8.

Sequence MKKWIYGGQTGKIAGIGGFSVHAASS came in with an AmyQ secretion efficiency of 6.97.

In the case of MKKWIYIMSFMIVVLVLSIAGIGGFSVHAASS, the AmyQ secretion efficiency was found to be 4.

In the case of MKKWIYTVLVLSIAGIGGFSVHAASS, the AmyQ secretion efficiency came to 6.39.

In turn, MKKWIYTYKVLSIAGIGGFSVHAASS displayed an AmyQ secretion efficiency of 6.93.

In turn, MKKWIYVKKKKKKAGIGGFSVHAASS returned an AmyQ secretion efficiency of 6.75.

Take MKKWIYVRKKRSIAGIGGFSVHAASS: the AmyQ secretion efficiency was found to be 7.24.

In turn, MKKWIYVRRVLSIAGIGGFSVHAASS gave an AmyQ secretion efficiency of 7.43.

As for MKKWIYVVLVLSIAGIGGFSAFGPVTAVHAASS, the AmyQ secretion efficiency came to 2.96.

Sequence MKKWIYVVLVLSIAGIGGFSDHAASS registered an AmyQ secretion efficiency of 6.49.

MKKWIYVVLVLSIAGIGGFSGHAASS: the AmyQ secretion efficiency was found to be 5.88.

MKKWIYVVLVLSIAGIGGFSLHAASS yielded an AmyQ secretion efficiency of 6.87.

MKKWIYVVLVLSIAGIGGFSMHAASS: the AmyQ secretion efficiency came out at 5.22.

MKKWIYVVLVLSIAGIGGFSNHAASS gave an AmyQ secretion efficiency of 6.81.

In the case of MKKWIYVVLVLSIAGIGGFSSHAASS, the AmyQ secretion efficiency is 6.17.

Sequence MKKWIYVVLVLSIAGIGGFSVHAAED had an AmyQ secretion efficiency of 5.68.

With MKKWIYVVLVLSIAGIGGFSVHAASR, the AmyQ secretion efficiency came to 5.28.

On to MKKWIYVVLVLSIAGIGGFSVHAKKR, for which the AmyQ secretion efficiency was determined as 6.58.

In turn, MKKWIYVVLVLSIAGIGGFSVHCASS returned an AmyQ secretion efficiency of 6.47.

MKKWIYVVLVLSIAGIGGFSVHDASS: the AmyQ secretion efficiency came to 7.82.

MKKWIYVVLVLSIAGIGGFSVHGASS: the AmyQ secretion efficiency is 7.27.

Regarding MKKWIYVVLVLSIAGIGGFSVHIASS, the AmyQ secretion efficiency worked out at 6.47.

For the sequence MKKWIYVVLVLSIAGIGGFSVHKASS, the AmyQ secretion efficiency was determined as 4.97.

Sequence MKKWIYVVLVLSIAGIGGFSVHMASS came in with an AmyQ secretion efficiency of 5.57.

MKKWIYVVLVLSIAGIGGFSVHNASS showed an AmyQ secretion efficiency of 5.06.

As for MKKWIYVVLVLSIAGIGGFSVHRASS, the AmyQ secretion efficiency is 6.42.

Take MKKWIYVVLVLSIAGIGGFSVHSASS: the AmyQ secretion efficiency turned out to be 5.94.

MKKWIYVVLVLSIAGIGGFSVHTASS gave an AmyQ secretion efficiency of 6.85.

MKKWIYVVLVLSIAGIGGFSVHWASS displayed an AmyQ secretion efficiency of 7.53.

As for MKKWIYVVLVLSIAGIGGFSVHYASS, the AmyQ secretion efficiency is 8.11.

Turning to MKKWIYVVLVLSIAGIGGFSYHAASS, the AmyQ secretion efficiency turned out to be 7.41.

MKKWIYVVLVLSIAGIGGISVSAFSVHAASS yielded an AmyQ secretion efficiency of 5.09.

For MKKWIYVVLVLSIAGIGGKRKKKKVHAASS, the AmyQ secretion efficiency stood at 7.49.

MKKWIYVVLVLSIAGIGGKRRVHAASS had an AmyQ secretion efficiency of 7.83.

In the case of MKKWIYVVLVLSIAGIGGPSVHAASS, the AmyQ secretion efficiency amounted to 2.74.

MKKWKQTQQSGIAAAISIFVYVSTGSEK had an AmyQ secretion efficiency of 7.55.

Regarding MKKWKYRRRVVLVLSIAGIGGFSVHAASS, the AmyQ secretion efficiency was 7.42.

The sequence MKKWLIIAVSLAIAIVLFDDTDGEAKAAGM registered an AmyQ secretion efficiency of 2.55.

In turn, MKKWLIIAVSLAIAIVLFMAFKGEAKAAGM registered an AmyQ secretion efficiency of 3.57.

Take MKKWLIIAVSLAIAIVLFMSVSFFAKAAGM: the AmyQ secretion efficiency was 5.66.

For the origin of these results see the supplement of paper PMC9942255.
